Results as given in patent publication US20070015260A1, “Synthesis of synthons for the manufacture of bioactive compounds” (DIVERSA CORPORATION, priority 2002, published 2007).
Entries after “also recorded” stand apart in the source; their conditions may differ.

Legend:
[1] = system: E. coli SELECT (Δace, adhC, DE3) cells; assay: In vivo selection: growth of E. coli SELECT with supplementation substrates; format: cell-based; settings: for toxicity of supplementation substrate to SELECT cells: together with sodium acetate
Description: SELECT was transformed with the DERA expressing plasmid, pET30a WT DERA, and growth conditions were then optimized for the expression of soluble active DERA enzyme. Selection conditions were further optimized using DERA's natural substrate DRP as a supplementation substrate and FIG. 6 illustrates that viable selection conditions are achieved. In the absence of 2-carbon supplementation, neither SELECT cells transformed with a plasmid which expresses WT DERA nor those transformed with a nonexpressing plasmid (−) grow. By contrast, both grow in the presence of sodium acetate supplementation. […] Proof of principle for this selection system arises from the fact that only E. coli SELECT cells transformed with plasmid that expresses WT DERA grow when DRP is used as the supplementation substrate. Furthermore, that the endogenous genomic E. coli DERA is not expressed at a sufficiently high level to affect the use of DRP as a 2-carbon source by virtue of its metabolism to acetaldehyde and D-glyceraldehyde-3-phosphate was established. […] A novel activity-based selection system is thus established and can be used to select for a DERA variant which can catalyze the retro-aldol reaction of DR and other nonphosphorylated substrates. Work is in progress to identify novel DERA variants for this purpose.
Plasmids were transformed into electrocompetent SELECT cells and subjected to 1 h outgrowth at 37° C. in 1 mL SOC medium supplemented with 0.1% sodium acetate. The cells were then collected by centrifugation at 4° C., 3000 rpm for 10 min. The supernatant was discarded and the pellet gently resuspended M9 0.2% glucose. This was repeated twice. The cells were then diluted to OD600=0.001 in M9 0.2% glucose, 0.01 mM IPTG, 10 μg/mL kanamycin. The appropriation supplementation substrate (sodium acetate, D-2-deoxyribose-phosphate or D-2-deoxyribose) was then added at 0.1% w/w concentration. After an appropriate selection time at 37° C., typically 24-72 h, the cells were harvested by centrifugation and their amplified plasmids isolated.

[2] = DERA addition (aldol) assay; format: biochemical; settings: spectrophotometric coupled-assay of substrate consumption and TLC of product formation
Protocol: DERA enzyme activity was assayed in the aldol synthesis direction by determining the concentration of acetaldehyde remaining by a coupled endpoint assay with yeast alcohol dehydrogenase (YADH, EC 1.1.1.1). 200 mM acetaldehyde, which had been freshly distilled under anerobic conditions, 200 mM (±)-glyceraldehyde and 0.2 mg/mL DERA in 50 mM triethanolamine, pH 7.5 buffer which had been deoxygenated with N2, were incubated under an N2 atmosphere at 22° C. At various time points, 50 μL aliquots were withdrawn and quenched into 15 μL of 60% perchloric acid. After a 5 min incubation on ice, 890 μL 1 M triethanolamine, pH 7.5 buffer and 45 μL 4 N NaOH were added to neutralize the solution. 20 μL of this solution was then assayed for remaining acetaldehyde. The amount of acetaldehyde remaining was equated to moles NADH consumed, as determined in triethanolamine pH 7.5 buffer containing 0.3 mM NADH, 20 μL the above quenched reaction aliquot and 0.05 mg/mL YADH. DR product formation was also confirmed by silica gel TLC with ethylacetate running solvent and p-anisaldehyde developing stain. Rf: glyceraldehyde=0.04 (stains brown) Rf:2-deoxyribose=0.1 (stains blue).

[3] = DERA cleavage (retroaldol) coupled assay, unnatural substrate DR; format: biochemical; settings: for ratio of specificity constants {kcat/KM (DR)}/{kcat/KM (DRP)}: DR compared to DRP, read; for activity / specificity with DR, in words: compared to WT; for Km / kcat: retro-aldol, pH 7.5, 25° C.
Protocol: (§1) Enzyme activity was monitored by the standard coupled assay using α-Glycerophosphate Dehydrogenase (α-GPD, EC 1.1.18), and Triosephosphate Isomerase (TPI, EC 5.3.1.1). Enzyme activity was assayed in the retro-aldol, decomposition direction with 0.01-4 mM D-2-deoxyribose-5-phosphate (DRP) or 5 to 200 mM D-2-deoxyribose in 50 mM triethanolamine hydrochloride pH 7.5 buffer using a GPD/TPI (1.6 U/mL Sigma G-1881) coupled enzyme system at 25° C. in the presence of 0.3 mM NADH by observing the rate of decrease of NADH concentration as monitored at 340 nm, ε=6220 M^−cm^−1.

[4] = DERA cleavage (retroaldol) coupled assay, natural substrate DRP; format: biochemical; settings: for Km / kcat: retro-aldol, pH 7.5, 25° C.; for activity / kcat/KM with the natural substrate DRP, in words: compared to WT
Protocol: as §1

[5] = Sequential asymmetric aldol reaction with azidoaldehyde acceptor; format: biochemical; settings: 3-azidopropinaldehyde acceptor, two molecules of acetaldehyde as donor
[6] = DERA catalysis with 2-methyl-3-hydroxypropinaldehyde as acceptor; format: biochemical; settings: L-2-methyl derivative as substrate

Molecule | toxicity of supplementation substrate to SELECT cells [1] | relative activity of the DERA variants in the aldol direction [2] | ratio of specificity constants {kcat/KM (DR)}/{kcat/KM (DRP)} [3] | activity / specificity with DR, in words ([3]; substrate DR) | Km ([3]; substrate DR) [mM] | kcat ([3]; substrate DR) [s⁻¹] | Km [4] [mM] | kcat [4] [s⁻¹] | growth of SELECT cells transformed with expressing plasmid ([1]; DRP as the supplementation substrate) | acceptance of the azidoaldehyde as substrate [5] | improvement in kcat/KM compared to that of the wild type [6] [fold] | improvement in kcat/KM compared to WT-DERA ([3]; substrate DR) [fold] | activity / kcat/KM with the natural substrate DRP, in words [4] | decrease in kcat/KM ([3]; substrate DR) [fold]
O=CC[C@@H](O)[C@H](O)CO [DR, D-2-deoxyribose] | neither of these supplementation substrates nor their metabolic products are toxic to the cells | – | – | – | – | – | – | – | – | – | – | – | – | –
WT: wild-type E. coli 2-deoxyribose-5-phosphate aldolase (DERA, EC 4.1.2.4) | – | S238˜DS239W>WT>R207E>K172E>G205E | 1.9 × 10^−5 | cannot accept the unnatural substrate DR efficiently | 57 ± 7 | 0.107 ± 0.005 | 0.64 ± 0.01 | 68 ± 1 | grow | not a substrate; also recorded: inactive | – | – | – | –
O=CC[C@@H](O)[C@H](O)COP(=O)(O)O [DRP, D-2-deoxyribose-5-phosphate] | neither of these supplementation substrates nor their metabolic products are toxic to the cells | – | – | – | – | – | – | – | – | – | – | – | – | –
S238D: DERA variant, phosphate binding pocket residue Ser238 replaced with Asp (protein, UniProt P0A6L0 1-259, looked up, variant S238D) Deoxyribose-phosphate aldolase: MTDLKASSLRALKLMDLTTLNDDDTDEKVIALCHQAKTPVGNTAAICIYPRFIPIARKTLKEQGTPEIRIATVTNFPHGNDDIDIALAETRAAIAYGADEVDVVFPYRALMAGNEQVGFDLVKACKEACAAANVLLKVIIETGELKDEALIRKASEISIKAGADFIKTSTGKVAVNATPESARIMMEVIRDMGVEKTVGFKPAGGVRTAEDAQKYLAIADELFGADWADARHYRFGADSLLASLLKALGHGDGKSASSY | – | S238˜DS239W>WT>R207E>K172E>G205E | 0.13 | – | 39 ± 6 | 0.21 ± 0.01 | 61 ± 11 | 0.58 ± 0.05 | – | catalyzes a novel sequential aldol reaction; also recorded: accepts 3-azidopropionaldehyde as a new substrate | 5 | 2.5 | substantially decreased | –
K172E: DERA variant, basic phosphate binding pocket residue Lys172 mutated to Glu (protein, UniProt P0A6L0 1-259, looked up, variant K172E) Deoxyribose-phosphate aldolase: MTDLKASSLRALKLMDLTTLNDDDTDEKVIALCHQAKTPVGNTAAICIYPRFIPIARKTLKEQGTPEIRIATVTNFPHGNDDIDIALAETRAAIAYGADEVDVVFPYRALMAGNEQVGFDLVKACKEACAAANVLLKVIIETGELKDEALIRKASEISIKAGADFIKTSTGEVAVNATPESARIMMEVIRDMGVEKTVGFKPAGGVRTAEDAQKYLAIADELFGADWADARHYRFGASSLLASLLKALGHGDGKSASSY | – | S238˜DS239W>WT>R207E>K172E>G205E | 0.27 | – | 63 ± 22 | 0.022 ± 0.02 | – | – | – | – | – | – | – | 5
R207E: DERA variant, basic phosphate binding pocket residue Arg207 mutated to Glu (protein, UniProt P0A6L0 1-259, looked up, variant R207E) Deoxyribose-phosphate aldolase: MTDLKASSLRALKLMDLTTLNDDDTDEKVIALCHQAKTPVGNTAAICIYPRFIPIARKTLKEQGTPEIRIATVTNFPHGNDDIDIALAETRAAIAYGADEVDVVFPYRALMAGNEQVGFDLVKACKEACAAANVLLKVIIETGELKDEALIRKASEISIKAGADFIKTSTGKVAVNATPESARIMMEVIRDMGVEKTVGFKPAGGVETAEDAQKYLAIADELFGADWADARHYRFGASSLLASLLKALGHGDGKSASSY | – | S238˜DS239W>WT>R207E>K172E>G205E | 2.2 | virtually unchanged | 33 ± 3 | 0.064 ± 0.001 | – | – | – | – | – | – | – | –
G205E: DERA variant, neutral phosphate binding pocket residue Gly205 replaced with Glu (protein, UniProt P0A6L0 1-259, looked up, variant G205E) Deoxyribose-phosphate aldolase: MTDLKASSLRALKLMDLTTLNDDDTDEKVIALCHQAKTPVGNTAAICIYPRFIPIARKTLKEQGTPEIRIATVTNFPHGNDDIDIALAETRAAIAYGADEVDVVFPYRALMAGNEQVGFDLVKACKEACAAANVLLKVIIETGELKDEALIRKASEISIKAGADFIKTSTGKVAVNATPESARIMMEVIRDMGVEKTVGFKPAGEVRTAEDAQKYLAIADELFGADWADARHYRFGASSLLASLLKALGHGDGKSASSY | – | S238˜DS239W>WT>R207E>K172E>G205E | 3.1 × 10^−3 | virtually inactive | – | – | – | – | – | – | – | – | virtually inactive | –
